Reference: the supplement of paper PMC11780869

Tested on: Bacillus subtilis
Assay: cleaved RNA product abundance (RNA/gDNA barcode ratio) relative to median wild-type variant (ratio to wild type); higher = more accumulation of the downstream cleavage product
Procedure, shortened: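 Oligos with a 9% error rate were used to build barcoded, mutagenized RNase Y cleavage-site windows within truncated aprE or tetM reporter mRNAs, which were integrated into the B. subtilis chromosome. Cultures were grown in LB at 37°C between OD600 0.0003 and 0.3. Cleaved RNA was gel-selected, reverse transcribed and barcode-sequenced, as were genomic DNA barcodes, and UMIs were collapsed. Cleaved product abundance is the scaled RNA:gDNA barcode ratio, with the median construct carrying the unmutated site as reference.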

[1] = experiment (reporter, strain, medium): exp 4a: truncated aprE reporter, strain BJT201 with 2% xylose (RNase J1 expressed), cleavage site: cggR-gapA (positions -7 to +36 mutated)
[2] = experiment (reporter, strain, medium): exp 2b: truncated aprE reporter, strain BJT200, cleavage site: cggR-gapA (positions -7 to +36 mutated)
[3] = experiment (reporter, strain, medium): exp 8a: truncated aprE reporter, strain BJT201 with 2% xylose (RNase J1 expressed), cleavage site: glnRA (positions -5 to +31 mutated)

ACAGACGAAGGAGCCGCAAATAAGTTATTAAGGGATGAATAATCCCTCATTATAAATATCTCTCACTTATTTAAA
cleaved RNA product abundance [1]: 0.356

ACAGACGAAGGAGCCGCAAAGAAGTTATTAAGGTATGAATAATCCCTCGATATAAATATCTCTCACTTATTTAAA
cleaved RNA product abundance [2]: 0.0823 | cleaved RNA product abundance [1]: 0.0744

ACAGACGAAGGAGCCGCAAAGAAGTTTTTAAGGGATGAATATTCCCTCAATATAAATATCTCTCACTTATTTAAA
cleaved RNA product abundance [2]: 0.214 | cleaved RNA product abundance [1]: 0.341

ACAGACGAAGGAGCCGCAAAGAAGCTAATAAGGGATGAATAATCCCTCAATATAAATATCTCTCACTTATTTAAA
cleaved RNA product abundance [2]: 0.247 | cleaved RNA product abundance [1]: 0.286

ACAGACGAAGGAGCCGCAAAGAAGTTATTAAGGCATGAATATTCCCTCAATATAAATATCTCTCACTTATTTAAA
cleaved RNA product abundance [2]: 0.119 | cleaved RNA product abundance [1]: 0.144

ACAGACGAAGGAGCCGCAAAGAAGATATTAAGGGATGATTAATCCCTCAATATAAATATCTCTCACTTATTTAAA
cleaved RNA product abundance [1]: 0.803

ACAGACGAAGGAGCCGCAAAGAAGTTATTAAGGGATGAATAATCCCTCCAAATAAATATCTCTCACTTATTTAAA
cleaved RNA product abundance [2]: 0.239 | cleaved RNA product abundance [1]: 0.313

ACAGACGAAGGAGCCGCAAAAAAGTTATTAAGGGATGTATAATCCCTCAATATAAATATCTCTCACTTATTTAAA
cleaved RNA product abundance [2]: 1.06 | cleaved RNA product abundance [1]: 1.09

ACAGACGAAGGAGCCGCAAAGAAGTTATTAAGGGATGAATAATCACTCAATATAGATATCTCTCACTTATTTAAA
cleaved RNA product abundance [2]: 0.143 | cleaved RNA product abundance [1]: 0.116

ACAGACGAAGGAGCCGCAAAGAAGTTATTACGGGATGAATAATCCCTTAATATAAATATCTCTCACTTATTTAAA
cleaved RNA product abundance [1]: 1.47

CGACATGTCCCGCTTCTTTCATTAATCCGTTAGCAACTGTTTTCCTATATACATATACCTTTTAAGAGGAGGAAT
cleaved RNA product abundance [3]: 0.353

ACAGACGAAGGAGCCGCAAAGAAGTTATTAAGGGATGAATATTCCCTCAATATAAATCTCTCTCACTTATTTAAA
cleaved RNA product abundance [1]: 0.471

CGACATGTCCCGCTTCTTTCATTAATCCGTTATCAACTGTTTTGCTATATACATTTACATTTTAAGAGGAGGAAT
cleaved RNA product abundance [3]: 0.366

ACAGACGAAGGAGCCGCAAATAAGTTATTAAGGGATGAATACTCCCTCAATATAAATATCTCTCACTTATTTAAA
cleaved RNA product abundance [2]: 0.682 | cleaved RNA product abundance [1]: 0.538

ACAGACGAAGGAGCCGCAAAGAAGTTATTAAGGCATGAATAATCCCTCAATATAATTATCTCTCACTTATTTAAA
cleaved RNA product abundance [2]: 0.0921 | cleaved RNA product abundance [1]: 0.095

ACAGACGAAGGAGCCGCAAAGAAGTTATGAAGGGATAAATAATCCCTCAATATAAATATCTCTCACTTATTTAAA
cleaved RNA product abundance [2]: 0.349 | cleaved RNA product abundance [1]: 0.542

ACAGACGAAGGAGCCGCAAAGAAGTTATTAAGGGATGAATAATGCATCAATATAAATATCTCTCACTTATTTAAA
cleaved RNA product abundance [1]: 0.159

ACAGACGAAGGAGCCGCAAAGAATTTATTAAGGGATTAATAATCACTCAATATAAATATCTCTCACTTATTTAAA
cleaved RNA product abundance [1]: 0.153

CGACATGTCCCGCTTCTTTCATTAATCCGTTAGCAACTGTTTTGATATATACATTTATCTTTTAAGAGGAGGAAT
cleaved RNA product abundance [3]: 0.509

CGACATGTCCCGCTTCTTTCATTAATCCGTTAGCAACTGTTTAGCTAAATACATTTACCTTTTAAGAGGAGGAAT
cleaved RNA product abundance [3]: 0.212

ACAGACGAAGGAGCCGCAAAGAAGTTATTAATGGATGAAAAATCCCTCAATATAAATATCTCTCACTTATTTAAA
cleaved RNA product abundance [2]: 0.111 | cleaved RNA product abundance [1]: 0.166

ACAGACGAAGGAGCCGCAAAGAAGTTATTAACGGATGAATAATCACTCAATATAAATATCTCTCACTTATTTAAA
cleaved RNA product abundance [2]: 0.0895 | cleaved RNA product abundance [1]: 0.106

ACAGACGAAGGAGCCGCAAAGAACTTATTAAGGGATGAATAATTCATCAATATAAATATCTCTCACTTATTTAAA
cleaved RNA product abundance [1]: 0.372

ACAGACGAAGGAGCCGCAAAAAAGTTATTAAGGGATGAATAATCCCTCAATATAAATACCTCTCACTTATTTAAA
cleaved RNA product abundance [1]: 0.493

CGACATGTCCCGCTTCTTTCATTAATCCGTTAGGAACTTTTTTGCTATATACATTTACCTTTTAAGAGGAGGAAT
cleaved RNA product abundance [3]: 0.409

CGACATGTCCCGCTTCTTTCATTAATCCGTTAGCAACTGTTATGCTATATACATTTACCTTTTAAGAGGAGGAAT
cleaved RNA product abundance [3]: 0.695

CGACATGTCCCGCTTCTTTCATTAATCCGATAGCAACTGTTTTGCTATTTACATTTACCTTTTAAGAGGAGGAAT
cleaved RNA product abundance [3]: 0.189

ACAGACGAAGGAGCCGCAAAGAAGTTATTAAGTGATGAATAATTCCTCAATATAAATATCTCTCACTTATTTAAA
cleaved RNA product abundance [2]: 0.0685 | cleaved RNA product abundance [1]: 0.14
